The results in this text go back to a protein production outcome set (Wang et al. 2014).

A short description of the series: label from the status in PepcDB records.
With “HSIPYKNINLPCYFISPANDGEKRDTVMIVSGFDGTLEEEFLMRGLAAVERGYNVIHFAGPGQMDVFRKYPDTYFEPDFEQVVKRIINYFEFRQEINMAKLTLMGISFGGYFATRAASHEPRIKVLIANSPILDLHAYMCSFVKMDPCEMPDSEDFSINDLPSIPNEVMPPQLKAQTEHLIRRFGQPTFKATFHYLREFTVGDSLNHIKIPCLALLGSGEGGEPGKQFAEFCKITNSAQYEFSDFEGAGSHCQVGNVSYSNAVVYDWLDSL”, the protein production entry is on record as “not failed”.
Take “HSIVAITDNRGVITHVNEKFCDISQYEYYELVGTTHKIINSGFHPRSFFKQMWKTIAQGNIWKGEICNRTKQGKLYWVDTTIVPLKDND”: the protein production result is reported as “failed”.
For the sequence “IAAGGSHVEAAPQEEWKKHFIHTGELGSAEFASVMSHTTSAMKSVFEQVNAPYSGMDPKALEDAINAVDLDNKNAPLKSVIDDVAELVAKNAIFTQHPDCIAHLHTPPLMPAVAAEAMIAALNQSMDSWDQASSATYVEQKVVNWLCDKYDLSEKADGIFTSGGTQSNQMGLMLARDWIADKLSGHSIQKLGLPDYADKLRIVCSKKSHFTVQKSASWMGLGEKAVMTVDANADGTMDITKLDEVIAQAKAEGLIPFAIVGTAGTTDHGAIDDLDFIADMAVKHDMWMHVDGAYGGALILSSHKSRLKGVERAHSISVDFHKLFYQTISCGALLVNDKSNFKFLLHHADYLNREHDELPNLVDKSIATTKRFDALKVFMTMQNVGPKALGDMYDHLLAQTLEVADMIRTNDQFELLAEPSLSTVLFRATHETADLDELNKALRLEALTRGIAVLGETIVDGKTALKFTILNPCLTTSDFESLLSKINMLAVELV”, the protein production result is reported as “not failed”.
Take “IAQIPVSVYWMNKNHVYMGCSNNMVKLLNLNSRYDIVGKTYEDLYHEKSTSYYKKADKIVMDKGISLSLEEPFYCPDGTTKEIYLSNKVPLRDLEGKIIGMLGVSVDIT”: the protein production result is listed as “failed”.
Then “IDTNLLYVFFTSGSTGIPKGVSIAHKSVIDYTFWVCETFKFDENEILANQAPFYFDNSILDIFSSVKSGATLHLLPNHLFAFPNKILECLEKEKVSTIFWVPSVLIYFANTEALNNFSLNALKKMLFCGEIMPNKQLNIWRKHLPNALFANLYGPTEITDVCSFYIINRTFKDEEL”, with “failed”.
Then “IEAENHKVTDKIKNAQPFLVDVVPAKSVIPELNDDAQKTLLHAGPPIQWSEMTGPMKGACIGAALFERWADNEEDALKIFEAGEVRFIPCHHVKAVGPMGGITSGNMPVFVVENRLEGNEAYCILNEGIGKVLRFGAYSQEVVDRLDWIKDVLGPTIAKALKLSEEGLNLNVLIARSITMGDEFHQRNIAASLNFLKELSPLIIKTDIPEDQKYEVIKFLADTDQFFLNVMMATGKAIVDGARKDTNGTIVTTMTRNGVNFGVRIAETGDQWHTAPVNTPKGLYFTGFSEEDGNPDVGDSAITETVGVGAMAMVAAPGVTRFVGAGGFEDALATSNEMAKICEGNNPTFSIPTWDFQGTCLGIDIRKVVELGITPIINTGIAHKNAGVGQIGAGTVRAPLGCFEKALEAYAEKLGITVE”, with “failed”.
Then “IEFESRTTDEGVAVVRPAGRLNMVAAPRLRELLRDVVDGGTTCVVVDLSATDFIDSSGLGALIAGLKAARQAGGDLRIAQPTEQVETVLALTNLNRVLRTHDSVDAAFD”, with “failed”; and “IEKCWTEDEVKRFVKGLRQYGKNFFRIRKELLPNKETGELITFYYYWKKT”, with “not failed”.
As for “IGIVNDMPLAVEALRRALAFEPQHQIVWVASNGAEAVTQCAADTPDVVLMDLLMPVMDGVEATRRIMAESPCAIVIVTVDIEQNVHRVFEAMGYGALDAVNTPALGIGNPQTAAAPLLRKIQNVGWLIGQRDNRGKVQVVPPKAGGARQRLVAIGASAGGPASLAVLLKQLPASFNAAVVLVQHVDEVFAAGMAEWLASESKLPVRLARDGEPPIPGQILLAGTNNHIRLLRNGSLVYTAEPRSFVYRPSIDVFFESVANYWRGDAVGVLLTGMGRDGAQGLKQMRERGFLTIAQDQASCAVYGMPKAAAAIDAAVQILSLEKIA”, the protein production result was “failed”.
Consider “IGIWFTGTDGRYHFVNKTFCNLVGIEEEDMLNTPSSNLAELLGSEIAHNCLDSDRAALGQDLAHVSYETIPRLNAKPYLLEITKVKLKNTR”, for which the protein production entry is given as “failed”.
Then “IHHLPPVKAPLQTKKKIMKHCFLCGKKTGLATSFECRCGNNFCASHRYAEAHGCNYDYKSAGRRYLEEANPV”, with “not failed”; and “IHIQQIENLMEYEFSHLVQDSEEEGFNFLIRLINGYKNKVNVFNKTGECLYGIFQGDMLIGVGGLNEDPYTKDNKIGRLRRFYISRDYRRLGLGNLLLNQLLCHAEKYFEVIVLHTDTKQGDVFYTANGFVK”, with “failed”.
